Measured values from patent US20140348862.

Each binder was assayed against HLA-B*3501 (human), P01889 (assay: competition, FACS 4C). Settings: modification not given.

| IC50 [nM] | Binder |
| --- | --- |
| 110 | LPTLAKFSPY [PRAME 246-255] |

Molecular target: HLA-B*3501 (human), P01889
Assay: competition, FACS 4C
Settings: modification not given
Remark: another data set of the same source

| IC50 [nM] | Binder |
| --- | --- |
| < 1000 | EPILCPCFM [PRAME 499-507] |

Molecular target: HLA-B*3501 (human), P01889
Assay: competition, FACS 4C
Settings: modification not given
Remark: another data set of the same source

| Binder | IC50 [nM] |
| --- | --- |
| QPFIPVEVL [PRAME 170-178] | 2830 |
| GACDELFSY [PRAME 186-194] | 2600 |
| IPVEVLVDL [PRAME 173-181] | 2240 |

Further lines, results first:

| IC50 [nM] | Binder |
| --- | --- |
| 1580 | LPRELFPPLF [PRAME 48-57] |
| < 1000 | LPTLAKFSPY [PRAME 246-255] |
| < 1000 | FPPLFMAAF [PRAME 53-61] |
| 1980 | SPYLGQMINL [PRAME 253-262] |
| < 1000 | LPRELFPPL [PRAME 48-56] |
| 320 | EPILCPCFM [PRAME 499-507] |

The binders below were run against HLA-B7 (human), P01889 (assay: competition, FACS 4C). Settings: modification not given.

| IC50 [nM] | Binder |
| --- | --- |
| < 1000 | RPRRWKLQVL [PRAME 113-122] |
